Four molecules from US20020065210A1 (Genentech, published 2002) can be followed below.

B1: recombinant Fc-tagged DcR3 (expressed as described in Example 7, purified by Protein A chromatography) (Fc fusion)
chain: VAETPTYPWRDAETGERLVCAQCPPGTFVQRPCRRDSPTTCGPCPPRHYTQFWNYLERCRYCNVLCGEREEEARACHATHNRACRCRTGFFAHAGFCLEHASCPPGAGVIAPGTPSQNTQCQPCPPGTFSASSSSSEQCQPHRNCTALGLALNVPGSSSHDTLCTSCTGFPLSTRVPGAEECERAVIDFVAFQDISIKRLQRLLQALEAPEGWGPTPRAGRAALQLKLRRRLTELLGAQDGALLVRLLQALRVARMPGLERSVRERFLPVH
modifications: biotinylated in the FACS assay (sites not given)
notes: also called biotinylated Fc-tagged DcR3; DcR3-IgG; not shown: Fc tag (Fc region of IgG)

In assay [1] the target is Fas expressed on human HeLa S3 cells (human) (UniProt P25445). Kind of assay: cell-based or functional assay.
Fas expressed on human HeLa S3 cells (human), sequence (P25445 26-335): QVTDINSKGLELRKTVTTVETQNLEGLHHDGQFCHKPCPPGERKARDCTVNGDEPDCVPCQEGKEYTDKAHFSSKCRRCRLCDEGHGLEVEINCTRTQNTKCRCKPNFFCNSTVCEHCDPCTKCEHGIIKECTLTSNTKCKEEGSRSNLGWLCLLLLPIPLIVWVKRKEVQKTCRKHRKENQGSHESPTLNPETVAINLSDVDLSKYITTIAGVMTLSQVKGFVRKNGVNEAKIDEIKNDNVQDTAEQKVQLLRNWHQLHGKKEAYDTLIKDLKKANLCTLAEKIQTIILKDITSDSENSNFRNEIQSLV
Assay [2] concerns the target T1, OPG (also referred to as TRANCE, RANKL), full-length, expressed from pRK5 on transiently transfected 293 cells (UniProt O14788 1-317, limits assumed).
T1 construct: whole, on cells
T1 sequence (looked up): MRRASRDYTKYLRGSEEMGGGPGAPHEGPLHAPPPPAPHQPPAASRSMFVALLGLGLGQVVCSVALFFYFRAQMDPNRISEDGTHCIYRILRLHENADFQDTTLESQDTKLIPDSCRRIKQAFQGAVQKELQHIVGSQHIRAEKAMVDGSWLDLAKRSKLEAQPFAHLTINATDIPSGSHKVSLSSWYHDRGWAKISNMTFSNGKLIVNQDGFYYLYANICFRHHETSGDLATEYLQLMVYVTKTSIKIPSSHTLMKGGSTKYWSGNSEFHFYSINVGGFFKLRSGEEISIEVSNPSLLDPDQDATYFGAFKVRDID
In words: FACS, biotinylated Fc-tagged DcR3 on transiently transfected 293 cells. An excerpt: (§1) Human 293 cells (ATCC CRL 1573) were transiently transfected with empty pRK5 vector (see Example 5) or pRK5 encoding full-length TNF-alpha [Pennica et al., Nature, 312:724-729 (1984)], Fas ligand [Suda et al., Cell, 75:1169-1178 (1993)], LIGHT [Mauri et al., Immunity, 8:21 (1998)], Apo-2 ligand [[WO 97/25428 published Jul. 17, 1997)], Apo-3 ligand (also referred to as TWEAK) [Marsters et al., Current Biology, 8:525 (1998); Chicheportiche et al., J. Biol. Chem., 272:32401 (1997)], or […] (also referred to as TRANCE, RANKL) [Wong et al., J. Biol. Chem., 272:25190 (1997); Anderson et al., Nature, 390:175 (1997); Lacey et al., Cell, 93:165 (1998)].

In assay [3] the target is B1. The description is as above.
Text: as §1

Assay [4] deals with T2, Fc-tagged ectodomain of TNFR1 (UniProt P19438 30-211, limits assumed).
T2 construct: extracellular domain; Control immunoadhesin; also called Fc-tagged TNFR1; not shown: Fc tag
T2 sequence (looked up): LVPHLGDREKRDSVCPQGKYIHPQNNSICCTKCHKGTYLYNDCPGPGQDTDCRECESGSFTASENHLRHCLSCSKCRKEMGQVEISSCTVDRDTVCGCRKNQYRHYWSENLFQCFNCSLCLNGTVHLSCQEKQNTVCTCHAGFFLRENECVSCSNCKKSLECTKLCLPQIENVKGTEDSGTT
In words: co-immunoprecipitation with protein A-sepharose, anti-Fas ligand immunoblot. On the procedure: Precipitates were resolved by SDS polyacrylamide gel electrophoresis (4-20% gradient) under reducing conditions (25 mM dithiothreitol), and visualized by immunoblot, followed by enhanced chemiluminescence detection (Amersham) with rabbit polyclonal anti-Fas ligand antibody (Oncogene Research Products) at 2 microgram/ml.

In turn, “full-length Fas ligand expressed from pRK5 on transiently transfected cells (from UniProt P48023 1-281)” displayed an apoptosis of transfected HeLa S3 cells (annexin binding by FACS) in assay [1] of 25%.

On to B1, for which the binding result in assay [2] is reported as “no binding”.

B2: full-length Apo-3 ligand (also referred to as TWEAK) expressed from pRK5 on transiently transfected 293 cells (ligand, UniProt O43508 1-249, looked up)
chain: MAARRSQRRRGRRGEPGTALLVPLALGLGLALACLGLLLAVVSLGSRASLSAQEPAQEELVAEEDQDPSELNPQTEESQDPAPFLNRLVRPRRSAPKGRKTRARRAIAAHYEVHPRPGQDGAQAGVDGTVSGWEEARINSSSPLRYNRQIGEFIVTRAGLYYLYCQVHFDEGKAVYLKLDLLVDGVLALRCLEEFSATAASSLGPQLRLCQVSGLLALRPGSSLRIRTLPWAHLKAAPFLTYFGLFQVH
notes: whole, on cells
In the case of B2, the binding result in assay [3] was “no binding”.

B3: purified, soluble Fas ligand (Alexis Biochemicals) (ligand, UniProt P48023 103-281, looked up)
chain: QLFHLQKELAELRESTSQMHTASSLEKQIGHPSPPPEKKELRKVAHLTGKSNSRSMPLEWEDTYGIVLLSGVKYKKGGLVINETGLYFVYSKVYFRGQSCNNLPLSHKVYMRNSKYPQDLVMMEGKMMSYCTTGQMWARSSYLGAVFNLTSADHLYVNVSELSLVNFEESQTFFGLYKL
notes: Commercial soluble form
Consider B3, for which, in assay [4], the binding result is recorded as “no binding”.
